Laboratory results taken from the supplement of paper PMC9112550, “Optimization of the antimicrobial peptide Bac7 by deep mutational scanning” (BMC Biology, 2022).

Test system: Escherichia coli TOP10
Assay: shrunken log2 fold change of peptide-encoding DNA abundance (4.5 h post-induction vs induction); higher = less antimicrobial activity (less host growth inhibition)
Details: time post-induction: 4.5 h; library: site-saturation at positions 5, 18, 19, 20
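Further: peptides expressed intracellularly from a pBAD plasmid library in pooled LB shake-flask culture, induced with 0.3% L-arabinose, DNA abundance read by NGS, three biological replicates, DESeq2 with apeglm shrinkage.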

Row | Sequence | shrunken log2 fold change
1 | RRIRWRPPRLPRPRPRPHGQPRP | -0.0861
2 | RRIRDRPPRLPRPRPRPFGEPRP | -0.0214
3 | RRIRMRPPRLPRPRPRPIYHPRP | -0.322
4 | RRIRPRPPRLPRPRPRPAFLPRP | -0.0283
5 | RRIRARPPRLPRPRPRPMERPRP | 0.0157
6 | RRIRQRPPRLPRPRPRPPLMPRP | 0.179
7 | RRIRNRPPRLPRPRPRPYLSPRP | -0.169
8 | RRIRRRPPRLPRPRPRPIEQPRP | 0.0304
9 | RRIRRRPPRLPRPRPRPDNLPRP | 0.000421
10 | RRIRGRPPRLPRPRPRPDRTPRP | -0.0561
11 | RRIRARPPRLPRPRPRPTMWPRP | 0.516
12 | RRIRERPPRLPRPRPRPDCKPRP | 0.0476
13 | RRIRSRPPRLPRPRPRPCIDPRP | -0.607
14 | RRIRSRPPRLPRPRPRPPKEPRP | 1.07
15 | RRIRGRPPRLPRPRPRPFEQPRP | 0.618
16 | RRIRQRPPRLPRPRPRPYLDPRP | -0.286
17 | RRIRVRPPRLPRPRPRPIITPRP | -0.844
18 | RRIRPRPPRLPRPRPRPTHFPRP | 0.442
19 | RRIRCRPPRLPRPRPRPMCHPRP | -0.662
20 | RRIRVRPPRLPRPRPRPYLAPRP | -0.413
21 | RRIRYRPPRLPRPRPRPVTVPRP | -0.302
22 | RRIRTRPPRLPRPRPRPPREPRP | 0.141
23 | RRIRRRPPRLPRPRPRPWQSPRP | -0.0153
24 | RRIRKRPPRLPRPRPRPDRMPRP | 1.19
25 | RRIRTRPPRLPRPRPRPTHIPRP | -0.308

Row | Sequence | shrunken log2 fold change
26 | RRIRIRPPRLPRPRPRPCCFPRP | -0.725
27 | RRIRSRPPRLPRPRPRPSWVPRP | 0.0183
28 | RRIRMRPPRLPRPRPRPYEDPRP | 0.477
29 | RRIRCRPPRLPRPRPRPMPFPRP | -0.0545
30 | RRIRMRPPRLPRPRPRPCIAPRP | 0.099
31 | RRIRTRPPRLPRPRPRPPVSPRP | 0.147
32 | RRIRQRPPRLPRPRPRPIMIPRP | -0.452
33 | RRIRCRPPRLPRPRPRPPFNPRP | -0.137
34 | RRIRFRPPRLPRPRPRPKHHPRP | -0.282
35 | RRIRKRPPRLPRPRPRPSDCPRP | -0.00471
36 | RRIRNRPPRLPRPRPRPVDEPRP | 0.0158
37 | RRIRFRPPRLPRPRPRPMPTPRP | 0.432
38 | RRIRCRPPRLPRPRPRPMEMPRP | -0.193
39 | RRIRNRPPRLPRPRPRPHLCPRP | 0.183
40 | RRIRSRPPRLPRPRPRPNMGPRP | -0.351
41 | RRIRIRPPRLPRPRPRPIDRPRP | 0.203
42 | RRIRNRPPRLPRPRPRPPRHPRP | 0.271
43 | RRIRTRPPRLPRPRPRPCIYPRP | -0.264
44 | RRIRWRPPRLPRPRPRPDLMPRP | 0.325
45 | RRIRTRPPRLPRPRPRPDCYPRP | -0.000691
46 | RRIRVRPPRLPRPRPRPHVDPRP | 0.0108
47 | RRIRHRPPRLPRPRPRPGMRPRP | 0.163
48 | RRIRTRPPRLPRPRPRPFCEPRP | -0.0463
49 | RRIRVRPPRLPRPRPRPQQKPRP | -0.027
50 | RRIRIRPPRLPRPRPRPLDFPRP | 0.0619

Row | Sequence | shrunken log2 fold change
51 | RRIRFRPPRLPRPRPRPIQKPRP | 0.00595
52 | RRIRVRPPRLPRPRPRPQFTPRP | -0.697
53 | RRIRIRPPRLPRPRPRPEKNPRP | -0.232
54 | RRIRRRPPRLPRPRPRPEFNPRP | 0.25
55 | RRIRGRPPRLPRPRPRPANAPRP | 0.694
56 | RRIRFRPPRLPRPRPRPDFRPRP | 0.00564
57 | RRIRGRPPRLPRPRPRPKSCPRP | 0.959
58 | RRIRHRPPRLPRPRPRPSHTPRP | -0.248
59 | RRIRIRPPRLPRPRPRPFPLPRP | -0.547
60 | RRIRCRPPRLPRPRPRPKECPRP | 0.103
61 | RRIRLRPPRLPRPRPRPEHMPRP | -0.336
62 | RRIRGRPPRLPRPRPRPLKHPRP | 0.0581
63 | RRIRIRPPRLPRPRPRPIYGPRP | -0.000842
64 | RRIRCRPPRLPRPRPRPINTPRP | -0.329
65 | RRIRGRPPRLPRPRPRPYSHPRP | -0.129
66 | RRIRWRPPRLPRPRPRPHGMPRP | 0.0365
67 | RRIRQRPPRLPRPRPRPANEPRP | -0.104
68 | RRIRIRPPRLPRPRPRPGVLPRP | -0.0531
69 | RRIRYRPPRLPRPRPRPKHWPRP | 0.266
70 | RRIRDRPPRLPRPRPRPWLLPRP | 0.0241
71 | RRIRQRPPRLPRPRPRPHIQPRP | -0.444
72 | RRIRCRPPRLPRPRPRPVTLPRP | -0.34
73 | RRIRTRPPRLPRPRPRPLAAPRP | 0.363
74 | RRIRPRPPRLPRPRPRPLKAPRP | -0.0747
75 | RRIRQRPPRLPRPRPRPQVFPRP | 0.131

Row | Sequence | shrunken log2 fold change
76 | RRIRIRPPRLPRPRPRPRMWPRP | -0.0292
77 | RRIRRRPPRLPRPRPRPPEAPRP | 0.493
78 | RRIRLRPPRLPRPRPRPDTTPRP | -0.138
79 | RRIRNRPPRLPRPRPRPRHWPRP | 0.133
80 | RRIRFRPPRLPRPRPRPLWSPRP | 0.655
81 | RRIRFRPPRLPRPRPRPPPYPRP | 0.445
82 | RRIRNRPPRLPRPRPRPDKLPRP | -0.168
83 | RRIRRRPPRLPRPRPRPAWCPRP | 0.568
84 | RRIRCRPPRLPRPRPRPHAKPRP | -0.446
85 | RRIRKRPPRLPRPRPRPVPIPRP | 0.177
86 | RRIRGRPPRLPRPRPRPPMRPRP | 1.39
87 | RRIRQRPPRLPRPRPRPGSQPRP | -0.161
88 | RRIRHRPPRLPRPRPRPGLKPRP | 0.182
89 | RRIRFRPPRLPRPRPRPWHEPRP | -0.00448
90 | RRIRDRPPRLPRPRPRPQDLPRP | 0.0112
91 | RRIRNRPPRLPRPRPRPTYKPRP | -0.196
92 | RRIRRRPPRLPRPRPRPPRFPRP | 1.17
93 | RRIRTRPPRLPRPRPRPGFDPRP | -0.164
94 | RRIRTRPPRLPRPRPRPQHPPRP | 0.0586
95 | RRIRERPPRLPRPRPRPIAGPRP | 0.0426
96 | RRIRERPPRLPRPRPRPGTSPRP | 1.87
97 | RRIRKRPPRLPRPRPRPGHWPRP | 0.2
98 | RRIRFRPPRLPRPRPRPHICPRP | -0.0238
99 | RRIRERPPRLPRPRPRPGWNPRP | 0.277
100 | RRIRDRPPRLPRPRPRPIYIPRP | -0.288

Row | Sequence | shrunken log2 fold change
101 | RRIRMRPPRLPRPRPRPSWWPRP | 0.169
102 | RRIRERPPRLPRPRPRPEAAPRP | 0.575
103 | RRIRWRPPRLPRPRPRPNLKPRP | -0.0669
104 | RRIRCRPPRLPRPRPRPWQEPRP | -0.153
105 | RRIRTRPPRLPRPRPRPAPFPRP | 0.0263
106 | RRIRARPPRLPRPRPRPEFTPRP | 0.475
107 | RRIRARPPRLPRPRPRPPWNPRP | 0.427
108 | RRIRRRPPRLPRPRPRPRKCPRP | 0.22
109 | RRIRPRPPRLPRPRPRPKVTPRP | 0.0845
110 | RRIRSRPPRLPRPRPRPHLNPRP | -0.158
111 | RRIRARPPRLPRPRPRPEQTPRP | 1.18
112 | RRIRVRPPRLPRPRPRPLEHPRP | -0.22
113 | RRIRKRPPRLPRPRPRPCKDPRP | 0.0741
114 | RRIRSRPPRLPRPRPRPMQSPRP | -0.00143
115 | RRIRIRPPRLPRPRPRPGMDPRP | -0.295
116 | RRIRFRPPRLPRPRPRPKPKPRP | 0.848
117 | RRIRARPPRLPRPRPRPMHFPRP | 0.122
118 | RRIRYRPPRLPRPRPRPNNPPRP | -0.359
119 | RRIRRRPPRLPRPRPRPPFYPRP | 0.463
120 | RRIRRRPPRLPRPRPRPPCKPRP | 0.492
121 | RRIRSRPPRLPRPRPRPYSLPRP | -0.35
122 | RRIRYRPPRLPRPRPRPHFEPRP | -0.115
123 | RRIRSRPPRLPRPRPRPCATPRP | 0.162
124 | RRIRVRPPRLPRPRPRPHHNPRP | 0.192
125 | RRIRTRPPRLPRPRPRPSLPPRP | -0.0317

Row | Sequence | shrunken log2 fold change
126 | RRIRFRPPRLPRPRPRPTWYPRP | -0.0222
127 | RRIRERPPRLPRPRPRPCISPRP | -0.218
128 | RRIRTRPPRLPRPRPRPMEHPRP | 0.118
129 | RRIRKRPPRLPRPRPRPVFHPRP | 0.818
130 | RRIRGRPPRLPRPRPRPMFQPRP | 0.357
131 | RRIRYRPPRLPRPRPRPYMEPRP | -0.0102
132 | RRIRFRPPRLPRPRPRPQSSPRP | 0.0748
133 | RRIRVRPPRLPRPRPRPGSIPRP | 0.00983
134 | RRIRVRPPRLPRPRPRPRWWPRP | 0.0125
135 | RRIRYRPPRLPRPRPRPSLHPRP | -0.622
136 | RRIRMRPPRLPRPRPRPDFMPRP | -0.0119
137 | RRIRMRPPRLPRPRPRPCWQPRP | 0.0757
138 | RRIRHRPPRLPRPRPRPDSTPRP | 0.12
139 | RRIRKRPPRLPRPRPRPHFRPRP | -0.138
140 | RRIRRRPPRLPRPRPRPGVWPRP | 0.47
141 | RRIRGRPPRLPRPRPRPRLFPRP | 1.11
142 | RRIRKRPPRLPRPRPRPGIMPRP | -0.206
143 | RRIRGRPPRLPRPRPRPAHDPRP | 0.643
144 | RRIRQRPPRLPRPRPRPKWMPRP | -0.131
145 | RRIRDRPPRLPRPRPRPVDGPRP | 0.0169
146 | RRIRCRPPRLPRPRPRPGKTPRP | 0.102
147 | RRIRRRPPRLPRPRPRPLIIPRP | -0.376
148 | RRIRRRPPRLPRPRPRPQWDPRP | 0.0215
149 | RRIRGRPPRLPRPRPRPPGHPRP | 0.772
150 | RRIRPRPPRLPRPRPRPQMCPRP | -0.101
